Literature values in paper PMC6628625.
pKd: −log10 of the molar value. Where two headings read alike, the source gives them in different places.

Assays:
[1] = biological target: calmodulin (Homo sapiens) (UniProt P0DP23)
[2] = biological target: calmodulin (Homo sapiens) (UniProt P0DP23); remark: listed apart in the source

| Substance | pKd [1] | pKd [2] |
| --- | --- | --- |
| AC (adenylate cyclase toxin) (from UniProt P0DKX7) | 9.70 | – |
| EF (edema factor) (from UniProt P40136) | – | 7.70 |
